Consider one molecule from patent CN112375147A (THE THIRD AFFILIATED HOSPITAL NAVAL MEDICAL UNIV OF PLA, dated 2021).

The experiment concerns the target T1, YKL-40 (native, secreted); in serum of patients with hepatocellular carcinoma lung metastasis and in culture … (human, UniProt P36222 22-383).
T1 construct: mature; Endogenous secreted protein, not a recombinant construct; also called Chi3l1; BRP39
Description: ELISA of YKL-40 left detectable in patient serum (1:100) after overnight incubation at 4 C with 10 ug/mL antibody, IgG control.

T1 sequence (P36222 22-383): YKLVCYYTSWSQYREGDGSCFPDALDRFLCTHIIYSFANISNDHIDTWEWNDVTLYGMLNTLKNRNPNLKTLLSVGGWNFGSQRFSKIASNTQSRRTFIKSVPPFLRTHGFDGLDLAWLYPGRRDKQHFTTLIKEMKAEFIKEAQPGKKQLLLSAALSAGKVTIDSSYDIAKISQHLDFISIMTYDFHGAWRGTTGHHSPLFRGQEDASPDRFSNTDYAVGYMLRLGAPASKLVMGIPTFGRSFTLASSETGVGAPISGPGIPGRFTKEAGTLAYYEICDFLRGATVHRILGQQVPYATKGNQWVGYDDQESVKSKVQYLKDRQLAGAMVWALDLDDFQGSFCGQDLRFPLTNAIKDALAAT

B1: 抗人YKL-40中和性单克隆抗体 (antibody, V domains shown)
VH: EVKLEESGGGLVQPGGSMKLSCAASGFTLSDAWMDWVRQSPEKGLEWVAEIRSKGNNHTPYYAESVKGRFTISRDDSRNSVYLQMNTLRAEDTGTYYCTRTVYYYGSSSCAMDYWGQGTSVTVSS
VL: DIQMTQSPASLSASVGETVTITCGASENIYGALNWYQRKQGKSPQLLIFGASNLADDMSSRFSGSGSGRQYSLKISSLHPDDVATYFCQNVLRTPWTFGGGTNLEIK
notes: Monoclonal antibody from mouse immunisation (hybridoma Hyb-NAY); also called N-AY; YKL-40中和性单抗
For the molecule B1, the binding result is “binds”.
